# Ends that are not written are not given here.
# What was measured:
# recombinant memapsin 2 [1] = target: T1, recombinant memapsin 2 (human, UniProt P56817 14-454, limits assumed); assay: enzyme inhibition with a synthetic fluorogenic peptide substrate
# T1 construct: also called M2; beta-secretase
# [2] = target: M2pd (modified M2 containing amino acids from Ala-8P to Ala326) (human) (UniProt P56817); assay: cell-based or functional assay
# recombinant memapsin 2 [3] = target: T1, recombinant memapsin 2; assay: comparison of inhibition constants
# recombinant memapsin 2 [4] = target: T1, recombinant memapsin 2; assay: Ki as stated in the crystallisation example; assay not described there
# T1 sequence (P56817 14-454 limits assumed): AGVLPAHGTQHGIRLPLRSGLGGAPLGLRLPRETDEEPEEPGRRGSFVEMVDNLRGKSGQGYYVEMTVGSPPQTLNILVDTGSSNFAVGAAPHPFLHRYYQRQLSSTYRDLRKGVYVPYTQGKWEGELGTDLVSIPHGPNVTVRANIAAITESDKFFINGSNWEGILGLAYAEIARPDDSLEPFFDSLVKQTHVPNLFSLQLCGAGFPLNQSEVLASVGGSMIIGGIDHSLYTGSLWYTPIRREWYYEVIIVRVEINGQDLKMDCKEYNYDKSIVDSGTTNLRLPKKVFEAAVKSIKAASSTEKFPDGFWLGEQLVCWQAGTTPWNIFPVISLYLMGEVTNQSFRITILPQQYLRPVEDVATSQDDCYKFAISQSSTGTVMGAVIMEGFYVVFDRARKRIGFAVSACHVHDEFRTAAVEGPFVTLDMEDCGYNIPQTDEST
# Chain of M2pd (modified M2 containing amino acids from Ala-8P to Ala326) (human) (P56817 22-501 limits assumed): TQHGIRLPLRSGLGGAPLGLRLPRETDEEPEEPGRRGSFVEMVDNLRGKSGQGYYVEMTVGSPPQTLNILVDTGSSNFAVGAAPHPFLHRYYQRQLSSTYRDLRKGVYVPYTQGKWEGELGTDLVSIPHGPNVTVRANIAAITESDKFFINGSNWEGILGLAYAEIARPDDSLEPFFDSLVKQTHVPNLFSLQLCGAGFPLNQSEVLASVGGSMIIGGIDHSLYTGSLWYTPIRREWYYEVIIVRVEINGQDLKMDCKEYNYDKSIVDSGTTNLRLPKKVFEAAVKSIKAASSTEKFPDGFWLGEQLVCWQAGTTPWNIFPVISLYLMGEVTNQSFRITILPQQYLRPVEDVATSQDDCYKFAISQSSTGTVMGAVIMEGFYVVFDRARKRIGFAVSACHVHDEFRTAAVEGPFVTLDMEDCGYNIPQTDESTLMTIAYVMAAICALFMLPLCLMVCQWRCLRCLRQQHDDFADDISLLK
molecule,measurement,setting,value
OM99-1 (peptide),Ki,recombinant memapsin 2 [1],30 nM
Pepstatin A (peptide),IC50 (inhibition of enzyme activity),[2],300000 nM
VNLAAEF (also: Leu3-Ala4 bond replaced by hydroxyethylene isostere -CH(OH)-CH2-) [OM99-2 with P4 Glu absent],fold increase in Ki against OM99-2,recombinant memapsin 2 [3],10 fold
"EVNLAAEF (also: Leu4-Ala5 peptide bond replaced by hydroxyethylene isostere -CH(OH)-CH2-, Synthetic substrate analogue based on the beta-secretase site of Swedish mutant APP) [OM99-2]",Ki,recombinant memapsin 2 [4],10 nM
